Data from the DeepSol protein solubility set.

Assay: soluble on expression in E. coli; label from the status in PepcDB or PDB records
With “MTQKLHIKTWGCQMNEYDSSKMADLLLSTHGLELTEAPEEADVLLLNTCSIREKAQEKVFHQLGRWKELKKNNPNLVIGVGGCVASQEGEHIRHRAPYVDIIFGPQTLHRLPEMINQIRGGKSSVVDVSFPEIEKFDRLPEPRAEGPTAFVSIMEGCNKYCTFCVVPYTRGEEVSRPVDDVLFEIAQLAEQGVREVNLLGQNVNAYRGPTHDGQICSFAELLRLVASIDGIDRLRFTTSHPIEFTDDIIDVYRDTPELVSFLHLPVQAGSDRVLTMMKRAHTALEYKSIIRKLRAVRPDIQISSDFIVGFPGETAEDFEQTMNLIAQVNFDMSFSFVYSARPGTPAADMPDDVTEDEKKQRLYVLQERINQQAAQFSRRMLGTEQRVLVEGPSKKDIMELTGRTETNRIVNFQGSPEMIGKFVDVKITDVYTNSLRGEVVRTEDEMGLRIAQSPQEVMNRTRKEDELGVGRYHGLEHHHHHH” the “soluble on expression in E. coli” value was “soluble”.
For “MGSDKIHHHHHHMAWIKTVAFGDATGKLRKLYDRVTGPGGNVDNIMMAHSLRPHTMEGHMALYKNVLHHSGNELPKWVLEMIGVWVSSLNGCAYCVEHHFAGLKRLMRDDARAEAIRAAIEARDIKALPVRACEMAAMDYARKLTQAPTEMMAADLEPLRAEGLSDGHILEINQVVAYFAYANRTVLGLGCSTEGDVLGLSPGNSDDPTDWGHA”, the “soluble on expression in E. coli” value was “not soluble”.
With “SPEWPPCLSVAPALVITMAAGKGAPLSPSAENRWRLSEPELGRGCKPVLLEKTNRLGPEAAVGRAGRDVGSAELALLVAPGKPRPGKPLPPKTRGEQRQSAFTELPRMKDRQVDAQAQEREHDDPTGQPGAPQLTQNIPRGPAGSKVFSVWPSGARSEQRSAFSKPTKRPAERPELTSVFPAGESADALGELSGLLNTTDLACWGRLSTPKLLVGDLWNLQALPQNAPLCSTFLGAPTLWLEHTQAQVPPPSSSSTTSWALLPPTLTSLGLSTQNWCAKCNLSFRLTSDLVFHMRSHHKKEHAGPDPHSQKRREEALACPVCQEHFRERHHLSRHMTSHS” the “soluble on expression in E. coli” value was “soluble”.
In the case of “MSTPTGQPIGLGLPDAPLPVLAPRRKTRQLMVGNVGVGSDYPVSVQSMTTTKTHDVNATLQQIAQLTASGCDIVRVACPKTVDAEALPAIAKKSPIPVIADIHFQPKYIFSAIDAGCAAVRVNPGNIKEFDGRVKEVAKAAGDAGIPIRIGVNAGSLDKRIMEKYGKATPEALVESALWEAGLFEDCGFGDIAISVKHNDPVIMVEAYRQLAAQSDYPLHLGVTEAGPAFQGTIKSSVAFGSLLSQGIGDTIRVSLSADPVEEIKVGDQILQSLNLRKRGLEIVSCPSCGRAQVDVYSLAEEVTAALDGMSIPLRVAVMGCVVNGPGEARDADLGVASGNGKGQIFVRGEVIKTVPESQIVETLIEEAVRLAEAEGLEIEEGAGPQVKITR”, the “soluble on expression in E. coli” value was “not soluble”.
For “MGSDKIHHHHHHMNLKHIEAFRAVMVSGSMTAAAKALFTSQPNVSRLIAQLERDTGLQLFQRSGVRLIPTSEGEAFFREVERAFVGLQGLANAAAQIRNLGSGRLRIAAMPSAGMTLVPHAIKRFVELFPDVTVSLHVNTSGTVNHWTASQFCDLGVAVYVSEASDCEVEQLSDLAAVCVMPAAHRLAAKRSIKPEDLEGESFISLCHGDGTRALMDEVFQRAGVQRVMAIEAQYTAMCCEMVRHGMGVTLAHPIVARDFAGPDIAIRPFLPATRFQTYLLFPPHRPRERLASAFVEVLRELHDELLAEVVVPTPSVGRRRVVRSASKG”, the “soluble on expression in E. coli” value was “not soluble”.
With “MERVAPNGQFKDVGVDQLFFSTTDAQGRIQETNNTFVELSRYTEEELRNAAHNIIRHPFMPGGVFKIMWDKLQRGETFAGYVRNLAHSGETYDVFATVTPIPGTHDYLSVRQRPCHDDHRALAMTIYAEVGDYEAQLRKDGMSAREAAEAGAGLIGDKLRESGFDNFDAYAHAMLPWEVFCRENMSTGLPQREVAGDLGTELAQAHDVHDHLDEWMLRLDELLTTAQQLGEAREELVDSLGQTSSLGDTIDARSASETLQIVQFQLNVWKGMQKIVDSYVVELAELITTLANDTLRERFQISVSRLHTAMLATFLAELIDGTSATANTEHKVALLKATMRDSLEAIDRGAFHRAQLVRSTISCIRTVTSLMESPRSLLTEAIREAQSLNNDELSAAIATELERSERAANNMHQLVATLESTATTPDIAAMLAEL” the “soluble on expression in E. coli” value was “not soluble”.
For “MVTKEQVVEALEGIVDPFLHKTLKETSAIKEVTVKPEKEHVSVKIAIVKTGTAEQMQLQSGIVKLVKELGAATVGLRFAEFTEEELAQFAPEQEEEQSESLLSPNSKTTFLAVASGKGGVGKSTVSVNLAVALARLGKKVGIIDADIYGFSVPDMMGIEKRPIVRGDKIIPVERLGVKVISMGFFVEDNAPVIWRGPMLGKMLNHFFTEVEWGDLDYLVLDLPPGTGDVALDVHSMLPSCKEIIVTTPHPTAAFVAARAGAMALRTEHSILGVVENMAYFESKVTGEKEYVFGKGGGDKLATELQTNVLGRIPLQQPDWNKEDFAPSVYEDTHTTGIIYSKIAETVIDKTAVTQKLEHHHHHH”, the “soluble on expression in E. coli” value was “soluble”.
For “MIFEMMGEKFDKNAPIAMQSDVFPRFIINCRDGRTIFKENDTLEFELIIFDNLTELFIQYIYVFETIGQSGLGPEKARYELLSVSDGKGNIIYKNTLLTGNAPVSDIREYISSRLDYCLNNRKNISRMTLLSSVMLNSDCKNGNKKVFFFSAEAFSYSIRERLSRLNVLEKEDEEKLNELLSDKRIINGINMKLTKIDYYIQNEQKTVTFPRFKGYIVFDIERINSYLDYFFACEKLCIGQNILLGFGRYVMG”, the “soluble on expression in E. coli” value was “not soluble”.
With “MSLDKLLERFLNYVSLDTQSKAGVRQVPSTEGQWKLLHLLKEQLEEMGLINVTLSEKGTLMATLPANVPGDIPAIGFISHVDTSPDCSGKNVNPQIVENYRGGDIALGIGDEVLSPVMFPVLHQLLGQTLITTDGKTLLGADDKAGIAEIMTALAVLQQKKIPHGDIRVAFTPDEEVGKGAKHFDVDAFDARWAYTVDGGGVGELEFENFNAASVNIKIVGNNVHPGTAKGVMVNALSLAARIHAEVPADESPEMTEGYEGFYHLASMKGTVERADMHYIIRDFDRKQFEARKRKMMEIAKKVGKGLHPDCYIELVIEDSYYNMREKVVEHPHILDIAQQAMRDCDIEPELKPIRGGTDGAQLSFMGLPCPNLFTGGYNYHGKHEFVTLEGMEKAVQVIVRIAELTAQRKEGGSHHHHHH” the “soluble on expression in E. coli” value was “soluble”.
For “MAHHHHHHMHYTGVGIEDVKVRFNEKMRLSASLQRRKSEEVEWSLFWEALNKGDGKMISEALSGASVSGATQQIGMAEACAVLLKGAGKEWHTRIVDDLPFSTVTRCSLLHAALAEKRPDVAAEMLSHARVTRSDLSSLWPLMAKCTWEEVLRMISACPKNAVPYNQALPFILKQGCSLQTLSEHLEHARVLGDADVVAPLLAYAVEMEDWPYVERCVGHLVDIGKITPSAREAFGHLCKLHGPKRVCHRLMEHHVELSSMTIEDLESLRF”, the “soluble on expression in E. coli” value was “not soluble”.
In the case of “MPKLVTWMNNQRVGELTKLANGAHTFKYAPEWLASRYARPLSLSLPLQRGNITSDAVFNFFDNLLPDSPIVRDRIVKRYHAKSRQPFDLLSEIGRDSVGAVTLIPEDETVTHPIMAWEKLTEARLEEVLTAYKADIPLGMIREENDFRISVAGAQEKTALLRIGNDWCIPKGITPTTHIIKLPIGEIRQPNATLDLSQSVDNEYYCLLLAKELGLNVPDAEIIKAGNVRALAVERFDRRWNAERTVLLRLPQEDMCQTFGLPSSVKYESDGGPGIARIMAFLMGSSEALKDRYDFMKFQVFQWLIGATDGHAKNFSVFIQAGGSYRLTPFYDIISAFPVLGGTGIHISDLKLAMGLNASKGKKTAIDKIYPRHFLATAKVLRFPEVQMHEILSDFARMIPAALDNVKTSLPTDFPENVVTAVESNVLRLHGRLSREYGSKLEHHHHHH”, the “soluble on expression in E. coli” value was “soluble”.
For “MGSSHHHHHHSSGLVPRGSHMGSSHHHHHHSSGLVPRGSHMSQLAHNLTLSIFDPVANYRAARIICTIGPSTQSVEALKGLIQSGMSVARMNFSHGSHEYHQTTINNVRQAAAELGVNIAIALDTKGPEIRTGQFVGGDAVMERGATCYVTTDPAFADKGTKDKFYIDYQNLSKVVRPGNYIYIDDGILILQVQSHEDEQTLECTVTNSHTISDRRGVNLPGCDVDLPAVSAKDRVDLQFGVEQGVDMIFASFIRSAEQVGDVRKALGPKGRDIMIICKIENHQGVQNIDSIIEESDGIMVARGDLGVEIPAEKVVVAQKILISKCNVAGKPVICATQMLESMTYNPRPTRAEVSDVANAVFNGADCVMLSGETAKGKYPNEVVQYMARICLEAQSALNEYVFFNSIKKLQHIPMSADEAVCSSAVNSVYETKAKAMVVLSNTGRSARLVAKYRPNCPIVCVTTRLQTCRQLNITQGVESVFFDADKLGHDWGKEHRVAAGVEFAKSKGYVQTGDYCVVIHADHKVKGYANQTRILLVE”, the “soluble on expression in E. coli” value was “soluble”.
In the case of “MAHHHHHHMVLPLPKLIQSNEGRVLYHVTNHPIRTIKKKIEGFFKYESLDNLNSEISVRQNFDELFVPLTHPARNIKDTFYLSENYVKHFSTLHNNLYTQLENTNGIYKYYLVTKFVHHHNILLKRTHMTAHLPDLLRRNYKNVIYTGSVYRRDEIDRFHFPIFHQTDGFLIRPDNFDVETDLKKNLEQLIRYLFDASDVQMKWEDNTSFPFTDPSYELYIRGESSKEIRTTGDDIGGESRWVEVLGCGKIKKEVIAMAMHAEDIRQIIEDEIARHDRGLLDELQSIETAVNEAAVNEAAVNEGATNEGAVNEGATNEAVARKSNVEWIYPNVPTPKDILDKLCTTTLNNRIEAQMNKFLKTIRYQGWAFGIGLERLAMLLYHIQDIRLFWSNDNRFIDQFEEGVITTFHPFSNFPPVEKDISFYITSQFKEDLFFQICRDVASENIEQVKKIDSYHNPKNNQTSVCYRITYRSHTQNLTHKTVNEMQSKIVQMLVKQCAVTIR”, the “soluble on expression in E. coli” value was “not soluble”.
In the case of “MLEPSHNDELPPIPGKRYFTIGEVSELCAVKPHVLRYWEQEFPQLNPVKRRGNRRYYQRLDVLMIRQIRGLLYDQGFTIGGARLRLTAGEPKDDTQQYKQMIREMIAELEDVLVMLKA”, the “soluble on expression in E. coli” value was “not soluble”.
With “VTNWWSGDKRYQRFIERLLSVFEGRVLELPAESHGNVAVMAFQSSPKEQNIDKLKKRADKLSNAYGLDFHRMLAGLKASNPNNGKHFHL” the “soluble on expression in E. coli” value was “not soluble”.
In the case of “MAFTEHSPLTPHRRDLCSRSIWLARKIRSDLTALTESYVKHQGLNKNINLDSADGMPVASTDQWSELTEAERLQENLQAYRTFHVLLARLLEDQQVHFTPTEGDFHQAIHTLLLQVAAFAYQIEELMILLEYKIPRNEADGMPINVGDGGLFEKKLWGLKVLQELSQWTVRSIHDLRFISSHQTGIP”, the “soluble on expression in E. coli” value was “soluble”.
In the case of “MGSDKIHHHHHHLLQAELGITSQRHFYSIGHLFPCGQLLERSRFNRRSKQLIWLVQFIRKAMSEMLPSDKLAIIDSFPLPLCQPVRNHRASIFKGLADIGYNASKHLWFYGFKVHMLVTLSGYILNYVVTPASVHDIKVVYELLEGCKQSVILGDLGYLSSELKKDLEQEGYHLWTPFRKNMTGAEEHNNWKVMAMRRTIETRFSELCRLFDIEHTLTRSLAGLQLRMEQIILAHNLRYFEMN”, the “soluble on expression in E. coli” value was “not soluble”.
In the case of “MARLSQEIILDMAEQIIYEKGMEKTTLYDIAGNLNVTHAALYKHYRNKEDLFQKLALRWLEETSREIFAWTKEKDASPDDALHDWLWLLADTKKTLYKTDRKMFLLYTDYIEQKEELVKNHIEHLAQKAEEVSGRVNQGDAIITAFIYFHNPYFASRWEKAGYVELFERVWQVVR”, the “soluble on expression in E. coli” value was “not soluble”.
